Results on two variants are retold here after article doi:10.1101/2025.11.07.687251 (2025).

B1: GFP-ATG13(1–230):ATG101 [human] / GST-WIPI3 [not stated] (parent complex)
chain 1: METDLNSQDRKDLDKFIKFFALKTVQVIVQARLGEKICTRSSSSPTGSDWFNLAIKDIPEVTHEAKKALAGQLPAVGRSMCVEISLKTSEGDSMELEIWCLEMNEKCDKEIKVSYTVYNRLSLLLKSLLAITRVTPAYRLSRKQGHEYVILYRIYFGEVQLSGLGEGFQTVRVGTVGTPVGTITLSCAYRINLAFMSTRQFERTPPIMGIIIDHFVDRPYPSSSPMHPCN
chain 2: MNCRSEVLEVSVEGRQVEEAMLAVLHTVLLHRSTGKFHYKKEGTYSIGTVGTQDVDCDFIDFTYVRVSSEELDRALRKVVGEFKDALRNSGGDGLGQMSLEFYQKKKSRWPFSDECIPWEVWTVKVHVVALATEQERQICREKVGEKLCEKIINIVEVMNRHEYLPKMPTQSEVDNVFDTGLRDVQPYLYKISFQITDALGTSVTTTMRRLIKDTLAL
chain 3: not shown
B2: GFP-ATG13(1–230):ATG101 [human] / GST-WIPI2 [not stated] (parent complex)
chain 1: B1 chain 1
chain 2: B1 chain 2
chain 3: MNLASQSGEAGAGQLLFANFNQDNTSLAVGSKSGYKFFSLSSVDKLEQIYECTDTEDVCIVERLFSSSLVAIVSLKAPRKLKVCHFKKGTEICNYSYSNTILAVKLNRQRLIVCLEESLYIHNIRDMKVLHTIRETPPNPAGLCALSINNDNCYLAYPGSATIGEVQVFDTINLRAANMIPAHDSPLAALAFDASGTKLATASEKGTVIRVFSIPEGQKLFEFRRGVKRCVSICSLAFSMDGMFLSASSNTETVHIFKLETVKEKPPEEPTTWTGYFGKVLMASTSYLPSQVTEMFNQGRAFATVRLPFCGHKNICSLATIQKIPRLLVGAADGYLYMYNLDPQEGGECALMKQHRLDGSLETTNEILDSASHDCPLVTQTYGAAAGKAYTDDLGAVGGACLEDEASALRLDEDSEHPPMILRTD

The variants in the first test derive from B1. As to the kind of experiment: GST beads binding assay (microscopy-based, Glutathione Sepharose beads); 0.5 μM GST bait; 20 mM HEPES (pH 7.5), 200 mM NaCl, 2 mM MgCl2, 1 mM TCEP; room temperature, 60 minutes; read off a plot.
Regarding chain 1 H214D, chain 1 F215D, the response was approximately 12000 A.U.

In a further test the parent is B2. Description: GST beads binding assay (microscopy-based, Glutathione Sepharose beads); 20 mM HEPES (pH 7.5), 200 mM NaCl, 2 mM MgCl2, 1 mM TCEP; room temperature, 60 minutes; read off a plot.
On to chain 1 H214D, chain 1 F215D, for which the response is approximately 21000 A.U.
